The target in assay [1] is T1, human latent myostatin (human, UniProt O14793 25-266; O14793 267-375).
T1 construct: non-covalent complex of two propeptides and the mature homodimer; also called human myostatin latent form
T1 sequence 1: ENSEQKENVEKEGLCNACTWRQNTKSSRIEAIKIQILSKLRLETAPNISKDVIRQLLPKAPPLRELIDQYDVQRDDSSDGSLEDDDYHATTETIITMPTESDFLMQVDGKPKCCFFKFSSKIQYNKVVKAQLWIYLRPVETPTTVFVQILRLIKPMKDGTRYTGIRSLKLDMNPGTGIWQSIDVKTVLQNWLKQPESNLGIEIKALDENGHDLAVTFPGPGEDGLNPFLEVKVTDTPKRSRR
T1 sequence 2: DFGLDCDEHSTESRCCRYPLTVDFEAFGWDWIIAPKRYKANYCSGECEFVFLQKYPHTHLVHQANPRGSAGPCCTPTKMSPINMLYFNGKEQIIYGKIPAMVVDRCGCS
The experiment in a line: SPR 37C pH7.4.

Assay [2] addresses T1, human latent myostatin. Put plainly: SPR, dissociation phase at pH5.8. A general note: SPR reads the build-up and loss of mass on a sensor chip optically.
For assay [3], the target named is T1, human latent myostatin. Put plainly: SPR avidity condition pH7.4 37C; pH 7.4.
For assay [4], the target named is T2, mouse latent myostatin (mouse, UniProt O08689 26-267; O08689 268-376).
T2 sequence 1: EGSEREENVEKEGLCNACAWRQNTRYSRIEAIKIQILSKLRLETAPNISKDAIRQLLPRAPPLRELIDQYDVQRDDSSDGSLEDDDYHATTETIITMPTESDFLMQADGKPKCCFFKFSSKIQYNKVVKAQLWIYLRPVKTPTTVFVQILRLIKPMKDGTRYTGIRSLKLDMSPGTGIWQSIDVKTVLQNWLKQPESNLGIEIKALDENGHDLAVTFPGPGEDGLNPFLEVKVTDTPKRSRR
T2 sequence 2: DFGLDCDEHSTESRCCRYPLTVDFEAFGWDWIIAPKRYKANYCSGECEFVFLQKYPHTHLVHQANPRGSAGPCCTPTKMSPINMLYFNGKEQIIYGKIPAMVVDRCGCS
The experiment in a line: SPR avidity condition pH7.4 37C; pH 7.4.

Assay [5] has as its target T3, cynomolgus monkey latent myostatin (cynomolgus monkey, UniProt Q95J86 25-266; Q95J86 267-375, limits assumed).
T3 construct: also called cyno latent myostatin
T3 sequence 1: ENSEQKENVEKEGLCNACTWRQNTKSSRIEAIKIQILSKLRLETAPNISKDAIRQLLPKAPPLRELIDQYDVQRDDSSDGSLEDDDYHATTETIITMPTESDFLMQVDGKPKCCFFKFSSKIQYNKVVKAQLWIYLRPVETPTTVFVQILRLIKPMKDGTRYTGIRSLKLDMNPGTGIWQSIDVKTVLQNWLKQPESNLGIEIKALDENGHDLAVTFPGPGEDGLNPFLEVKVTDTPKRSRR
T3 sequence 2: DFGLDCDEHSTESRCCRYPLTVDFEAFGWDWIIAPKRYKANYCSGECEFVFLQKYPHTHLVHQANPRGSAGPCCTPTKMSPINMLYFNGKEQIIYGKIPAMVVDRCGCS
Put plainly: SPR avidity condition pH7.4 37C; pH 7.4.

Assay [6] addresses T1, human latent myostatin. The experiment in a line: SPR avidity condition pH5.8 37C; pH 5.8.
Assay [7] deals with T2, mouse latent myostatin. Put plainly: SPR avidity condition pH5.8 37C; pH 5.8.
For assay [8], the target named is T3, cynomolgus monkey latent myostatin. The experiment in a line: SPR avidity condition pH5.8 37C; pH 5.8.
Assay [9] deals with T1, human latent myostatin. The experiment in a line: SPR affinity condition pH7.4 37C; pH 7.4.
In assay [10] the target is T2, mouse latent myostatin. Put plainly: SPR affinity condition pH7.4 37C; pH 7.4.
In assay [11] the target is T3, cynomolgus monkey latent myostatin. Put plainly: SPR affinity condition pH7.4 37C; pH 7.4.
In assay [12] the target is T1, human latent myostatin. The experiment in a line: SPR affinity condition pH5.8 37C; pH 5.8.
Assay [13] concerns the target T2, mouse latent myostatin. Put plainly: SPR affinity condition pH5.8 37C; pH 5.8.
Assay [14] concerns the target T3, cynomolgus monkey latent myostatin. The experiment in a line: SPR affinity condition pH5.8 37C; pH 5.8.
Assay [15] concerns the target T1, human latent myostatin. Put plainly: SPR affinity condition pH7.4 37C.
The target in assay [16] is T2, mouse latent myostatin. Put plainly: SPR affinity condition pH7.4 37C.
Assay [17] deals with T3, cynomolgus monkey latent myostatin. Put plainly: SPR affinity condition pH7.4 37C.
Assay [18] addresses T4, human Fc gamma RIIb on MDCK cells (human, UniProt P31994 43-310).
T4 sequence (looked up): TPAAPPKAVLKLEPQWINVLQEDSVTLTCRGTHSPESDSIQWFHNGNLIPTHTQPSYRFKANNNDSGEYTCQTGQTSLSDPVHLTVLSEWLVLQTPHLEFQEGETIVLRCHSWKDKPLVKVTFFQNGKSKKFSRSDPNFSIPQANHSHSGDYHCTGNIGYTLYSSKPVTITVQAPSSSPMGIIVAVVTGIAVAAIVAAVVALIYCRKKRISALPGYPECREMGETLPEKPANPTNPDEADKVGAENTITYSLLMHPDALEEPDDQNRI
The experiment in a line: cell-based or functional assay.

The target of a further assay is T5, GST-hMSTN 101-200aa (human, UniProt A1C2U3 101-200 (Pongo pygmaeus entry)).
T5 construct: not shown: GST tag of pGEX4.1 vector
T5 sequence: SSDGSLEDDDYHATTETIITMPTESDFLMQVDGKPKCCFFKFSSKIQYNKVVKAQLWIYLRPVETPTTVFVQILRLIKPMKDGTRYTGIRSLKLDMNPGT
Put plainly: Western blot. A general note: A western blot detects proteins with antibodies after separation by electrophoresis.

For a further assay, the target named is T6, GST-hMSTN 121-220aa (human, UniProt A1C2U3 121-220 (Pongo pygmaeus entry)).
T6 construct: not shown: GST tag of pGEX4.1 vector
T6 sequence: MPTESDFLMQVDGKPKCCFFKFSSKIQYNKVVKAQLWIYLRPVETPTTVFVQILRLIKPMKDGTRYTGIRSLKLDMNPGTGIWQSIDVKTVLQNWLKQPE
Put plainly: Western blot.

The target in the next assay is T7, GST-hMSTN 141-241aa (human, UniProt A1C2U3 141-241 (Pongo pygmaeus entry)).
T7 construct: not shown: GST tag of pGEX4.1 vector
T7 sequence: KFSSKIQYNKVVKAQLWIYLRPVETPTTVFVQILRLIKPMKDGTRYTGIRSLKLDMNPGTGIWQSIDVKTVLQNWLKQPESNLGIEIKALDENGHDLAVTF
The experiment in a line: Western blot.

These results are taken from EP4755449A2 (CHUGAI SEIYAKU KABUSHIKI KAISHA, dated 2026).

B1: MS_M103205H000-SG1/M103202L000-SK1 (antibody, human IgG1, kappa, V domains shown)
VH: QVTLKESGPVLVKPTETLTLTCTVSGIDLSSYDISWVRQAPGKGLEWVGIISYAGSTYYASWAKGRLTISKDTSKNQVVLTMTNMDPVDTATYYCARGVPAYSTGGDLWGQGTLVTVSS
VL: DIVMTQSPATLSLSPGERATLSCQSSQSVYDNNWLSWFQQKPGQPPKLLIYWASTLASGVPSRFSGSGSGTDFTLTISSLQPEDAATYYCAGGYGGGLYAFGQGTKVEIKR
notes: humanized; also called MS1032LO00-SG1; Ab001
The koff is a measure of how fast the partners let go of each other. By kon is commonly meant the rate constant with which the complex forms. As for B1, the Kd with human latent myostatin [1] was found to be 0.075 nM; with human latent myostatin [3], 0.075 nM; with mouse latent myostatin [4], 0.0471 nM; in assay [5] it was 0.0666 nM; with human latent myostatin [6], 0.0797 nM; with mouse latent myostatin [7], 0.0087 nM. The Kd in assay [8] came out at 0.00883 nM; with human latent myostatin [9], 0.23 nM; in the assay with mouse latent myostatin [10], 0.122 nM; in [11] it was 0.209 nM; with human latent myostatin [12], 0.215 nM; with mouse latent myostatin [13], 0.0438 nM. Also, in assay [14], the Kd amounted to 0.139 nM. Further, the koff in the assay with human latent myostatin [1] was determined as 9.52e-05 s⁻¹; with human latent myostatin [2] it was 2.92e-05 s⁻¹; in the assay with human latent myostatin [3], 9.52e-05 s⁻¹; with mouse latent myostatin [4] it was 7.18e-05 s⁻¹; in assay [5], 8.08e-05 s⁻¹; with human latent myostatin [6], 0.000128 s⁻¹. Moreover, the off-rate (koff) in the assay with mouse latent myostatin [7] worked out at 2.02e-05 s⁻¹; in assay [8], 1.58e-05 s⁻¹; with human latent myostatin [9] it was 0.000245 s⁻¹; with mouse latent myostatin [10] it was 0.00016 s⁻¹; in assay [11], 0.000213 s⁻¹; with human latent myostatin [12] it was 0.000235 s⁻¹. Also, the koff with mouse latent myostatin [13] turned out to be 7.08e-05 s⁻¹; in assay [14] it was 0.000196 s⁻¹. Also, the kon stood at 1.27e+06 M⁻¹ s⁻¹ with human latent myostatin [1]; 1.27e+06 M⁻¹ s⁻¹ in the assay with human latent myostatin [3]; 1.52e+06 M⁻¹ s⁻¹ in the assay with mouse latent myostatin [4]; 1.21e+06 M⁻¹ s⁻¹ in assay [5]; 1.6e+06 M⁻¹ s⁻¹ in the assay with human latent myostatin [6]; 2.32e+06 M⁻¹ s⁻¹ with mouse latent myostatin [7]. Moreover, the association rate constant (kon) in [8] was 1.79e+06 M⁻¹ s⁻¹; with human latent myostatin [9] it was 1.07e+06 M⁻¹ s⁻¹; with mouse latent myostatin [10] it was 1.31e+06 M⁻¹ s⁻¹; in [11], 1.02e+06 M⁻¹ s⁻¹; in the assay with human latent myostatin [12], 1.09e+06 M⁻¹ s⁻¹; with mouse latent myostatin [13] it was 1.62e+06 M⁻¹ s⁻¹. The on-rate constant (kon) in assay [14] stood at 1.41e+06 M⁻¹ s⁻¹.

B2: MS_M103205H714-SG1/M103202L861-SK1 (antibody, human IgG1, kappa, V domains shown)
VH: QVTLKESGPVLVKPTETLTLTCTVSGIDLSHTDISWVRQAPGKGLEWVGIISYAGSTYYASWAKGRLTISKDTSKNQVVLTMTNMDPVDTATYYCARGVPAYSHGGDLWGQGTLVTVSS
VL: DIVMTQSPATLSLSPGERATLSCTSSQSVYHNNWLSWFQQKPGQPPKLLIYWASTLAYGVPSRFSGSGSGTDFTLTISSLQPEDAATYYCAGGYGGGRYAFGQGTKVEIKR
notes: also called MS1032LO01-SG1
Regarding B2, the Kd with human latent myostatin [15] stood at 0.788 nM; with mouse latent myostatin [16], 0.713 nM; in assay [17], 0.954 nM; with mouse latent myostatin [4], 0.149 nM; in [5], 0.165 nM; with human latent myostatin [6], 19.5 nM. The Kd with mouse latent myostatin [7] worked out at 6.15 nM; in assay [8], 8.9 nM. Moreover, the off-rate (koff) with human latent myostatin [15] came out at 0.00129 s⁻¹; in the assay with mouse latent myostatin [16], 0.00107 s⁻¹; in [17] it was 0.0011 s⁻¹; with mouse latent myostatin [4], 0.000217 s⁻¹; in assay [5], 0.000197 s⁻¹; in the assay with human latent myostatin [6], 0.0242 s⁻¹. In addition, the values for the koff (with mouse latent myostatin [7]; in assay [8]) were 0.00625 s⁻¹ and 0.0068 s⁻¹, respectively. For the same molecule, the kon in the assay with human latent myostatin [15] came to 1.64e+06 M⁻¹ s⁻¹; with mouse latent myostatin [16] it was 1.5e+06 M⁻¹ s⁻¹; in assay [17], 1.15e+06 M⁻¹ s⁻¹; in the assay with mouse latent myostatin [4], 1.45e+06 M⁻¹ s⁻¹; in assay [5], 1.19e+06 M⁻¹ s⁻¹; with human latent myostatin [6], 1.22e+06 M⁻¹ s⁻¹. Besides, the kon in the assay with mouse latent myostatin [7] was 1.02e+06 M⁻¹ s⁻¹; in assay [8] it was 764000 M⁻¹ s⁻¹.

B3: MS103240H795-TT14/M103202L1045-SK1 (antibody, human IgG1, kappa)
heavy: QVQLVESGGGLVQPGGSLRLSCAVSGIDLSHDDISWVRQAPGKGLEWVSIISYAGSTYYASWAKGRLTISKDTSKNQVVLTMTNMDPVDTATYYCARGVPAYSHGGDLWGQGTLVTVSSASTKGPSVFPLAPSSKSTSGGTAALGCLVKDYFPEPVTVSWNSGALTSGVHTFPAVLQSSGLYSLSSVVTVPSSSLGTQTYICNVNHKPSNTKVDKKVEPKSCDKTHTCPPCPAPEYLGGDSVFLFPPKPKDVLMISRTPEVTCVVIDVSHEDPEVKFNWYVDGVEVHNAKTKPREEQYNSTYRVVSVLPVLHQDWLNGKEYKCKVSNKALPKPIEKTISKAKGQPREPQVYTLPPSREEMTKNQVSLTCLVKGFYPSDIAVEWESNGQPENNYKTTPPVLDSDGSFFLYSKLTVDKSRWQQGNVFSCSVMHEALHNHYTQKSLSLSP
light: DIVMTQSPATLSLSPGERATLSCTTSQSVYHENWLSWFQQKPGQPPKLLIYWASTLAYGVPSRFSGSGSGTDFTLTISSLQPEDAATYYCAGGYGGGRYAFGQGTKVEIKRTVAAPSVFIFPPSDEQLKSGTASVVCLLNNFYPREAKVQWKVDNALQSGNSQESVTEQDSKDSTYSLSSTLTLSKADYEKHKVYACEVTHQGLSSPVTKSFNRGEC
Consider B3, for which the “antigen fluorescence intensity inside cells (uptake of antigen-antibody complex)” value in assay [18] is 7.5 fold of SG1.

B4: MST1032 (as used in Example 26) (antibody, V domains shown)
VH: QSLEESGGRLVTPGGSLTVTCRVSGIDLSSYDISWVRQAPGKGLEWIGIISYAGSTYYASWAKGRFTISKTSTTVDLKMTSLTTEDTATYFCARGVPAYSTGGDLWGPGTLVTVSS
VL: AQVLTQTASSVSAAVGGTVTINCQSSQSVYDNNWLSWFQQKPGQPPKLLIYWASTLASGVPSRFKGSGSGTQFTLTISDLECDDAATYYCAGGYGGGLYAFGGGTKVEIK
Regarding B4, the binding result with GST-hMSTN 101-200aa, in the assay with GST-hMSTN 121-220aa and in the assay with GST-hMSTN 141-241aa was “no binding” each time.
